Test results taken from paper PMC12630831.

Target: T1, PRDX1 (peroxiredoxin 1), endogenous in TM3 cells (mouse (endogenous in TM3)), P35700
T1 chain: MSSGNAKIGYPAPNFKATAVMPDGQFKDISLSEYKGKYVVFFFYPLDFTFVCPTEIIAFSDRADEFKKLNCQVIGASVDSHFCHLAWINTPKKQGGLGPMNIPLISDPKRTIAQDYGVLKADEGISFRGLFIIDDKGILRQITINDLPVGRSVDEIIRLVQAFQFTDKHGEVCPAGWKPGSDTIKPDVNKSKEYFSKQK
Assay: SDS-PAGE under DTT-free conditions with western blot
Settings: remark: other sources report otherwise

stoichiometry N: 2
B1: PRDX1 (peroxiredoxin 1), endogenous in TM3 cells, P35700 1-199 (enzyme)
chain: T1 chain
